Measurements: the supplement of paper PMC10724198
± gives the standard deviation of the averaged measurements.

Tested on: Saccharomyces cerevisiae
Test: protein stability index of tFT-peptide fusion (C-terminal peptide) (PSI (0-1 scale)); higher = more stable (slower turnover)
Settings: genetic background: wild type; temperature: 30 C
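Note: PSI is a weighted mean of sequencing reads over stability bins, variants kept only with over 10 reads, mCherry proximal and sfGFP distal, peptide attached via GGGS linker.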

Sequence | protein stability index
CRGGLGASCRGR | 0.67 ± 0.008
ENKTNKEKQQKQ | 0.691 ± 0.012
GGSWGGGGVFVR | 0.637 ± 0.083
GPLPPPFSALPP | 0.703 ± 0.024
ADCRSRPMREGS | 0.665 ± 0.036
PMLSDVPTHSIS | 0.719 ± 0.039
PAPLLPLSPPRP | 0.709 ± 0.042
GSVTLTLLRPPS | 0.753 ± 0.086
HGISLVWEVGEG | 0.6439 ± 0.0035
RREVFIPSTRVL | 0.698 ± 0.044
LVHHPCNTPRVP | 0.749 ± 0.018
GGCVGVLGGWGF | 0.6827 ± 0.0032
LPSPLPPPAWTP | 0.735 ± 0.029
PPPPPLPPPPSP | 0.656 ± 0.052
FSRFWVSGGVVC | 0.599 ± 0.0082
RRGPDRCSSLPS | 0.6638 ± 0.0044
PPPPPLPPPTPP | 0.568 ± 0.024
KKRMKKKTKNKN | 0.652 ± 0.019
RPPPLPLPPHFP | 0.709 ± 0.069
HPRPPAASSRTR | 0.707 ± 0.044
VGSWSVICGGVL | 0.6929 ± 0.0061
LRSARPALLCTP | 0.678 ± 0.037
PPAAAPPSPPPL | 0.663 ± 0.0036
GGVGGLGTLCGG | 0.661 ± 0.051
FLAWPRSDYPGF | 0.732 ± 0.022
VSVGVCGYKVWG | 0.709 ± 0.1

Sequence | protein stability index
GGAAGGGRGGDG | 0.62 ± 0.069
GGLAWSMSGCVG | 0.691 ± 0.076
SRPALLLGSEAT | 0.642 ± 0.031
SVHAMDCNGYAN | 0.643 ± 0.013
CPPLEWSLRYPV | 0.722 ± 0.017
PPPFPYRTALLP | 0.708 ± 0.016
RWGPGAVWGRGR | 0.707 ± 0.068
DYRKGDVETPFV | 0.677 ± 0.032
PLYHPSESYNPA | 0.678 ± 0.016
MCNPAYVTSGVI | 0.6987 ± 0.0054
EGWVVYFEEDLE | 0.735 ± 0.017
LISFSGFSPFLW | 0.7678 ± 0.0027
VTVCQTRGADSV | 0.579 ± 0.01
ASSDRWVVYLYG | 0.685 ± 0.0083
WKCHRTDSRKRW | 0.726 ± 0.044
LPCSTLPWAPLT | 0.565 ± 0.023
RLRGLLSPVGPQ | 0.716 ± 0.047
RNFWIYTHTRCR | 0.668 ± 0.049
HPPASPPHSPRS | 0.63 ± 0.07
SCCPPSRTFFPS | 0.734 ± 0.0078
SPPLPPPVPTAP | 0.7095 ± 0.0056
PPPRLPPPPPPP | 0.679 ± 0.048
SRPPHPSPPRTF | 0.675 ± 0.03
QPLTYHPLLRRP | 0.715 ± 0.051
NRYRILDKLRRK | 0.6618 ± 0.0026
FVRCLFSSGCFF | 0.728 ± 0.013

Sequence | protein stability index
TTSQGHLCVAPR | 0.6827 ± 0.0038
GWRGGGSRELKW | 0.743 ± 0.031
WFQSSLVCDTWL | 0.681 ± 0.015
PPPRPRSLTCPA | 0.73 ± 0.14
LWGAGAGPEDVG | 0.6983 ± 0.0028
PWTAHVWSMVLG | 0.552 ± 0.033
VRRLSASSDGKI | 0.761 ± 0.14
SRSGPGEIVTTG | 0.688 ± 0.041
RGALGGGSNRLA | 0.788 ± 0.26
LLLLSTCSPLLL | 0.618 ± 0.021
PLPSLPPPPPPL | 0.661 ± 0.076
KLKIINENKLQN | 0.618 ± 0.087
RKEQEDVHNKKK | 0.671 ± 0.051
LPPPAPSPAPPH | 0.593 ± 0.12
LFTPLLVPYPTP | 0.522 ± 0.0028
PDSLCLSPPSLP | 0.686 ± 0.017
FVGGNEGSYWAS | 0.751 ± 0.035
QCASPRLSLGSP | 0.703 ± 0.03
SRGGGEGTVGKK | 0.697 ± 0.022
SFLPDCLSLFLF | 0.612 ± 0.058
GCRPFLLKSQTF | 0.777 ± 0.11
KSEMAIIEKKEN | 0.667 ± 0.055
TPLHRIGGLHLK | 0.653 ± 0.0075
PPLRPRCSPAPR | 0.706 ± 0.01
NTNNKKNSKHSN | 0.661 ± 0.02
VSSRWGGWWNGV | 0.655 ± 0.046

Sequence | protein stability index
PSAPFPFPALGA | 0.61 ± 0.028
HPPPVLSPPLSP | 0.7107 ± 0.0033
NGRENVHEWQRG | 0.711 ± 0.018
KDDEQESESKNN | 0.667 ± 0.011
IIQNNNQLKKRR | 0.671 ± 0.049
WPCVGWTLCSCS | 0.541 ± 0.042
PRETRPDEAQRG | 0.726 ± 0.069
GNPDFQVTKNPY | 0.67 ± 0.078
SPALLAPPFSPS | 0.68455 ± 0.00067
PVLPRPNTQSRS | 0.694 ± 0.027
AAGCSSGQAQFG | 0.727 ± 0.09
EARMGVGRCGTG | 0.661 ± 0.022
LEFMTENSCACV | 0.652 ± 0.033
FIIIKTKKMTMK | 0.7 ± 0.064
LPSPYPMPPPLP | 0.736 ± 0.018
SYFVIPGLSLSV | 0.568 ± 0.056
SQFLRPSAVAPS | 0.642 ± 0.037
LLSGRDAACRGG | 0.663 ± 0.027
SVGLTGHGTRGV | 0.571
LSLPSLLLRLSL | 0.644 ± 0.023
PSHLPRARRPPR | 0.686 ± 0.011
LPSPPPRPPHHR | 0.672 ± 0.025
PSLSPLPPRTTS | 0.732 ± 0.048
